The text below walks through data of patent publication US20260317429 (published 2026).

The target of experiment [1] is T1, FGFR2IIIb-his (ECD) (human).
T1 chain: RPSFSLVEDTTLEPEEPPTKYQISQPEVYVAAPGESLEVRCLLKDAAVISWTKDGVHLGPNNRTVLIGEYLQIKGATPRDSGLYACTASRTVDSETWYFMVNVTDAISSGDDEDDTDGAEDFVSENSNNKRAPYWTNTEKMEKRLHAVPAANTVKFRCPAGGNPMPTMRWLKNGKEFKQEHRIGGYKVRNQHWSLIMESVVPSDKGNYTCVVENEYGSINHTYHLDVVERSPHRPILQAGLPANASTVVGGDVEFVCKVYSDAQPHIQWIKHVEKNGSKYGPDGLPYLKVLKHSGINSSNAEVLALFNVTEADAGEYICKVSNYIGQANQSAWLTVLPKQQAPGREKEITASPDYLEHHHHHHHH
Nature of the experiment: SPR.

Experiment [2] deals with T1, FGFR2IIIb-his (ECD). Nature of the experiment: ELISA. (An ELISA detects its analyte on a solid surface through an enzyme-linked reagent.)
For experiment [3], the target named is T2, FGFR2IIIb on cells (human, UniProt P21802). The experiment in a line: FACS, SNU-16.
Target sequence in this assay (P21802 22-377): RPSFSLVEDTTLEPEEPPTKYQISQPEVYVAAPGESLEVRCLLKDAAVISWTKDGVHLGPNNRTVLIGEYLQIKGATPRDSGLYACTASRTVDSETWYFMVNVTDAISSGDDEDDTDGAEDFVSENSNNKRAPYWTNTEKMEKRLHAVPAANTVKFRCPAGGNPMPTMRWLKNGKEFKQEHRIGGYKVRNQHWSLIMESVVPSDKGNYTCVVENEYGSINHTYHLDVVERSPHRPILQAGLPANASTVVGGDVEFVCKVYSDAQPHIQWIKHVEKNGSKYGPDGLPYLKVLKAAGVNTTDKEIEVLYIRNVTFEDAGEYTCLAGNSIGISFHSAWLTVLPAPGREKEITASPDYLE
The target in experiment [4] is T2, FGFR2IIIb on cells. Nature of the experiment: FACS, CHO-FGFR2IIIb. In general terms: A flow cytometer gives signals particle by particle.
Target sequence in this assay (P21802 22-377): as above
The target in experiment [5] is T3, FGFR2IIIb-Fc (human, UniProt P21802). The experiment in a line: competition ELISA, FGF1.
Target sequence in this assay (P21802 22-377): as above
The target of experiment [6] is T3, FGFR2IIIb-Fc. Nature of the experiment: competition ELISA, FGF10.
Target sequence in this assay (P21802 22-377): as above
For the next experiment, the target named is T4, mouse FGFR2IIIb (mouse, UniProt P21803).
T4 chain: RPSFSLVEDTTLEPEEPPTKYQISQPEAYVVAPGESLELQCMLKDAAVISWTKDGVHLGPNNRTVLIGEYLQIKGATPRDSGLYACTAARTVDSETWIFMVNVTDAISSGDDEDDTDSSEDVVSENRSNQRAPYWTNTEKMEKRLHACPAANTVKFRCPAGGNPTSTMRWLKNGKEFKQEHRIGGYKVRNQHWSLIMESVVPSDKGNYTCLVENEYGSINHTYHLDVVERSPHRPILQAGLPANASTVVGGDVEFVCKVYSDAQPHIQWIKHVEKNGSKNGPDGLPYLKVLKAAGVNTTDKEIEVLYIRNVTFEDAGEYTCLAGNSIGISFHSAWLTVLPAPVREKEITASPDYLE
Nature of the experiment: ELISA.

For experiment [7], the target named is T3, FGFR2IIIb-Fc. The experiment in a line: competition ELISA, FGF1. This is another data set of the same source.
Experiment [8] has as its target T3, FGFR2IIIb-Fc. Nature of the experiment: competition ELISA, FGF7.
Experiment [9] deals with T3, FGFR2IIIb-Fc. The experiment in a line: competition ELISA, FGF10. The source holds these as a separate data set.
Experiment [10] has as its target T1, FGFR2IIIb-his (ECD). The experiment in a line: ELISA.
For experiment [11], the target named is T2, FGFR2IIIb on cells. Nature of the experiment: FACS, SNU-16. The source holds these as a separate data set.
Experiment [12] has as its target T2, FGFR2IIIb on cells. The experiment in a line: FACS, CHO-FGFR2IIIb. The source holds these as a separate data set.
Experiment [13] has as its target T3, FGFR2IIIb-Fc. The experiment in a line: competition ELISA, FGF1. The source holds these as a separate data set.
Experiment [14] concerns the target T3, FGFR2IIIb-Fc. The experiment in a line: competition ELISA, FGF7. This is another data set of the same source.
Experiment [15] has as its target T3, FGFR2IIIb-Fc. Nature of the experiment: competition ELISA, FGF10. This is another data set of the same source.
The next experiment concerns the target FGFR2IIIc-his (ECD) (human). Nature of the experiment: ELISA.
Experiment [16] deals with T1, FGFR2IIIb-his (ECD). Nature of the experiment: ELISA.
In experiment [17] the target is T3, FGFR2IIIb-Fc. Nature of the experiment: competition ELISA, FGF7. This is another data set of the same source.
Experiment [18] has as its target T3, FGFR2IIIb-Fc. Nature of the experiment: competition ELISA, FGF10. The source holds these as a separate data set.

Where two headings read alike, the source gives them in different places.

What is called Kd is the equilibrium constant for the complex coming apart. Low values mean higher affinity, high ones lower affinity. As usually defined, the EC50 is the midpoint of the concentration-response curve. For orientation: IC50 means the concentration that gives 50% inhibition. Higher therefore signals weaker potency in that assay.

B1: III-11 (antibody, V domains shown)
VH: QVQLVQSGAEVKKPGSSVKVSCKASGYTFAIYNMHWVRQAPGQGLEWIGAIYPDNGDTFYNQKFKGKATLTADKSTSTAYMELSSLRSEDTAVYYCARGDFGYWGQGTLVTVSS
VL: DIVMTQSPSSLSASVGDRVTITCKASQDVNIDPAWYQQKPGKAPKLLIYLASYRYTGVPSRFSGSGSGTDFTFTISSLQPEDFATYYCQQHYSTPYTFGQGTKLEIK
B1 gave a Kd in the experiment with FGFR2IIIb-his (ECD) [1] of 1.24 nM. Besides, the half-maximal effective concentration (EC50) was 0.051 mg/L in the experiment with FGFR2IIIb-his (ECD) [2], 0.319 mg/L with FGFR2IIIb on cells [3] and 0.19 mg/L with FGFR2IIIb on cells [4]. The results for the IC50 in the experiment with FGFR2IIIb-Fc [5] and with FGFR2IIIb-Fc [6] were 1.18 mg/L and 0.976 mg/L, respectively.

B2: III-15 (antibody, V domains shown)
VH: QVQLVQSGAEVKKPGSSVKVSCKASGYTFAIYNMHWVRQAPGQGLEWIGAIYPDNGDTFYNQKFKGKATLTADKSTSTAYMELSSLRSEDTAVYYCARGDFGYWGQGTLVTVSS
VL: DIVMTQSPSSLSASVGDRVTITCKASQDVNIDVAWYQQKPGKAPKLLIYLASYRYTGVPSRFSGSGSGTDFTFTISSLQPEDFATYYCQQTYSTPYTFGQGTKLEIK
B2: the Kd with FGFR2IIIb-his (ECD) [1] amounted to 1.04 nM. Further, the values for the EC50 with FGFR2IIIb-his (ECD) [2], with FGFR2IIIb on cells [3] and in the experiment with FGFR2IIIb on cells [4] were 0.042 mg/L, 0.378 mg/L and 0.26 mg/L, respectively. For the same molecule, the IC50 was 0.941 mg/L with FGFR2IIIb-Fc [5] and 0.805 mg/L with FGFR2IIIb-Fc [6].

B3: III-10 (antibody, V domains shown)
VH: QVQLVQSGAEVKKPGSSVKVSCKASGYTFANYNMHWVRQAPGQGLEWIGAIYPGNGDTSYNQKFKGKATLTADKSTSTAYMELSSLRSEDTAVYYCARGDFGYWGQGTLVTVSS
VL: DIVMTQSPSSLSASVGDRVTITCKASQDVNIDVAWYQQKPGKAPKLLIYSASYRYTGVPSRFSGSGSGTDFTFTISSLQPEDFATYYCQQHYSTPYTFGQGTKLEIK
The molecule B3 registered a Kd with FGFR2IIIb-his (ECD) [1] of 68.1 nM. Besides, the EC50 with mouse FGFR2IIIb worked out at 0.127 mg/L; in the experiment with FGFR2IIIb-his (ECD) [2], 0.052 mg/L; in the experiment with FGFR2IIIb on cells [3], 0.471 mg/L; with FGFR2IIIb on cells [4], 0.257 mg/L. The IC50 with FGFR2IIIb-Fc [7] is 0.581 mg/L; with FGFR2IIIb-Fc [8], 0.565 mg/L; with FGFR2IIIb-Fc [9], 0.724 mg/L.

B4: III-13 (antibody, V domains shown)
VH: QVQLVQSGAEVKKPGSSVKVSCKASGYTFAIYNMHWVRQAPGQGLEWIGAIYPDNGDTSYNQKFKGKATLTADKSTSTAYMELSSLRSEDTAVYYCARGDFGYWGQGTLVTVSS
VL: DIVMTQSPSSLSASVGDRVTITCKASQDVNIDVAWYQQKPGKAPKLLIYLASYRYTGVPSRFSGSGSGTDFTFTISSLQPEDFATYYCQQTYSTPYTFGQGTKLEIK
The molecule B4 returned a Kd with FGFR2IIIb-his (ECD) [1] of 1.23 nM. In addition, the figures for the IC50 in the experiment with FGFR2IIIb-Fc [5] and in the experiment with FGFR2IIIb-Fc [6] were 0.966 mg/L and 0.905 mg/L, respectively.

B5: III-14 (antibody, V domains shown)
VH: QVQLVQSGAEVKKPGSSVKVSCKASGYTFAIYNMHWVRQAPGQGLEWIGAIYPGNGDTFYNQKFKGKATLTADKSTSTAYMELSSLRSEDTAVYYCARGDFGYWGQGTLVTVSS
VL: DIVMTQSPSSLSASVGDRVTITCKASQDVNIDVAWYQQKPGKAPKLLIYLASYRYTGVPSRFSGSGSGTDFTFTISSLQPEDFATYYCQQTYSTPYTFGQGTKLEIK
On to B5, for which the Kd in the experiment with FGFR2IIIb-his (ECD) [1] came to 1.26 nM. Moreover, the EC50 in the experiment with FGFR2IIIb-his (ECD) [2] came to 0.058 mg/L; with FGFR2IIIb on cells [3], 0.526 mg/L; in the experiment with FGFR2IIIb on cells [4] it was 0.263 mg/L. Moreover, the IC50 worked out at 0.974 mg/L in the experiment with FGFR2IIIb-Fc [5] and 0.937 mg/L with FGFR2IIIb-Fc [6].

B6: III-12 (antibody, V domains shown)
VH: QVQLVQSGAEVKKPGSSVKVSCKASGYTFANYNMHWVRQAPGQGLEWIGAIYPDNGDTSYNQKFKGKATLTADKSTSTAYMELSSLRSEDTAVYYCARGDFGYWGQGTLVTVSS
VL: DIVMTQSPSSLSASVGDRVTITCKASQDVNIDVAWYQQKPGKAPKLLIYLASYRYTGVPSRFSGSGSGTDFTFTISSLQPEDFATYYCQQTYSTPYTFGQGTKLEIK
B6: the affinity in the experiment with FGFR2IIIb-his (ECD) [1], expressed as Kd, was 1.32 nM. Further, the results for the IC50 in the experiment with FGFR2IIIb-Fc [5] and with FGFR2IIIb-Fc [6] were 1.08 mg/L and 0.999 mg/L, respectively.

B7: III-0 (antibody, V domains shown)
VH: QVQLQQPGAELVRPGASVKMSCKASGYTFANYNMHWVKQTPRQGLEWIGAIYPGNGDTSYNQKFKGKATLTADKSSSTAYMQLSSLTSEDSAVYYCARGDFGYWGQGTTLTVSS
VL: DIVMTQSHKFMSTSVGDRVTITCKASQDVNIDVAWYQQKPGQSPKLLIYSASYRYTGVPDRFTGSGSGTDFTFTISSVQAEDLAVYYCQQHYSTPYTFGGGTKLEIK
Take B7: the Kd in the experiment with FGFR2IIIb-his (ECD) [1] was 81.3 nM. In addition, the EC50 with FGFR2IIIb-his (ECD) [10] worked out at 0.0404 mg/L; in the experiment with FGFR2IIIb-his (ECD) [2], 0.048 mg/L; in the experiment with FGFR2IIIb on cells [3] it was 0.74 mg/L; in the experiment with FGFR2IIIb on cells [11] it was 1.64 mg/L; with FGFR2IIIb on cells [4], 0.342 mg/L; with FGFR2IIIb on cells [12], 1.01 mg/L. Also, the IC50 in the experiment with FGFR2IIIb-Fc [7] is 0.692 mg/L; with FGFR2IIIb-Fc [13], 0.904 mg/L; with FGFR2IIIb-Fc [14], 0.694 mg/L; in the experiment with FGFR2IIIb-Fc [8], 0.603 mg/L; with FGFR2IIIb-Fc [15] it was 0.84 mg/L; with FGFR2IIIb-Fc [9], 0.745 mg/L.

B8: 27E9A11 (antibody, V domains shown)
VH: QVQLQQPGAELVRPGASVKMSCKASGYTFANYNMHWVKQTPRQGLEWIGAIYPGNGDTSYNQKFKGKATLTADKSSSTAYMQLSSLTSEDSAVYYCARGDFGYWGQGTTLTVSS
VL: DIVMTQSHKFMSTSVGDRVTITCKASQDVNIDVAWYQQKPGQSPKLLIYSASYRYTGVPDRFTGSGSGTDFTFTISSVQAEDLAVYYCQQHYSTPYTFGGGTKLEIK
As to B8, the binding result with FGFR2IIIc-his (ECD) was “no binding”. In addition, the EC50 with FGFR2IIIb-his (ECD) [16] was determined as 0.05 mg/L. Further, the IC50 with FGFR2IIIb-Fc [17] amounted to 0.417 mg/L; with FGFR2IIIb-Fc [18], 0.545 mg/L.
